{
  "source": "paper PMC12809078",
  "about": "(2025)",
  "target": "CtBP2_(31-364)-StrepI (human, UniProt P56545 31-364)",
  "experiment": "ITC",
  "data": [
    {"binder": "NKEGDTAWDLTPE", "note": "[G9a peptide encompassing residues 881 to 893]", "values": [
      {"measurement": "Kd", "result": 7.2, "unit": "µM"}
    ]}
  ]
}
